Experiment: yeast display, Sf9 membrane polyspecificity reagent, FACS + sequencing; frameworks hold sequencing errors
In short: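 Polyreactivity labels are assigned by the sorting gate from which each nanobody was recovered. The gates were low and high (top ~1%), set on anti-HA fluorescence for expression and streptavidin fluorescence for reagent binding. Before sorting, galactose-induced (36–48 hours) yeast display cells were stained for 1 hour at 4 °C with 10% biotinylated, detergent-solubilized Sf9 membrane reagent.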

Sequence | polyreactivity (PSR sort gate)
QVQLVESGGLIVQAGGSLRLSCAASRSTSRYSMGWYRQAPGKERELDAAITRSCGTTYYADSVKGRFTISRDNAKNSVYLQMNSLKPEDTAVYYCATSDRQVKDDYWGQGTQVTVSS | low polyreactivity
QVQLVESGGGLVQAGGSLRLSCAASGGIFDSYALGWYRQAPGKERELVADITSGGSTNYADSVKGRFTISRDNAKNTVYLQMNSLKPEDTAVYYCARTVYGARSYDYWGQGTQVTVSS | low polyreactivity
QVQLVESGGGLVQAGGSLRLSCAASGSTFRRYAMGWYRQAPGKERELVADIRGIGGSTYYADSVKGRFTISRDNAKNTVYLQMNSLKPEDTAVYYCNTSTLGGYYWGQGTQVTVSS | low polyreactivity
QVQLVESCGGLVQAGGSLRLSCAASGFTFGSYDMGWYRQAPGKERELVAAITWSGGSTYYADSVKGRFTISRDNAKNTVYLQMNSLKPEDTAVYYCNAYKFHMNYWGQGTQVTVSS | high polyreactivity
QVQLVESGGGLVQPGGSLRLSCAASGSIFIVYAMGWYRQAPGQERELVAGISVRTGSTYYADSVKGRFTISRDNAKNTGYLQMNSLKPEDTAVYYCAAPGYTGLGRNYWGQGTQVTVSS | low polyreactivity
QVHLVESGGGLVQAGGRLRLSCAASGYIFSVYAMGLYRQAPGKERELVAAISSGGSTYYADSLKGRLTISRDNAKYTVYLQMNSLKPEDTAVYYCAAESVYVYWYYVDYDYWGQGTQVTVSS | high polyreactivity
QVQLVESGGGLVQAGGSLRLSCAASGFIFSGNAMGWYILAPGKERELVAGIRSLGGTTSYADSVKGRFTISRDNAKNTVYLQMNSMKPEDTAVYYCAAGYGAEFDYWGQGTQVTVSS | low polyreactivity
QVQLVESGGGLVQAGGSLRLSCAASGNTFGINAMGWYRQAPGKERELVASISFTGSSTYYADSVKGRFTISRDNAKNTVYLQMNSLKPEDTAVYYCNRDRITLYEYDYWGQGTQVTVSS | low polyreactivity
QVQLVESVGGLVQAGGSLRLSCAASGSTLYPYAMGWYRQAPGKERELVAVITLRGGSTYYADSVKGRFTISRDNAKNTVYLQMNSLKPEDTAVYYCAARKRPFYKYDYWGQGTQVTVSS | high polyreactivity
QVQLVESGGGLVQAGGSLRLSCAASGSTFGKYAMGWYRPAPGKERELVAAITNGGRTNYADSVKGRFTISRDNAMNTVYLQMNSLKPEDTAVYYCNKARYGTDDYDYWGQGTQVTVSS | low polyreactivity
QGQLVESGGGLVQAGGSLRLSCAASGSIFSHYAMGWYRQAPGKEMELVAAISRSGGSTYYADSVKGRFTISRDNAKNTVYLQMNCLKPEDTAVYYCAKEGDSGYWFDYWGQGTQVTVSS | low polyreactivity
QVQLVESGGGLVQAGGRLRLSCAASGFIIARNAMGWYRQAPGKERELVAASSASGGRTYYADSVKGRFTISRDNAKNTVYLQMNSLKPEDTAVYYCAARRDGRSGSFNYWGQGTQVTVSS | high polyreactivity
QVQLVESGGGLVQAGGSLRLSCAASGIIFGQNAMGWSRQSPGKESEVVAAITISGGSTYYADSVKGRFTISRDNAKNTVYLQMNSLKPEDTAVYYCAARRVTWKVIARGYRYGYWGQGTQVTVSS | low polyreactivity
QVQLVESGGGLVQAGGSLRLSCAASGSTFRFNAMGWYRQAPGKERELVATISYSSDSTYYAYSVKVRFTISRDNAKNTVYLQMNSLKPEDTAVYYCAADSGYARFDYWGQGTQVTVSS | high polyreactivity
QFQLVESGGGLVQAGGSLRLSCAASGFIFYKYAMGWYRQAPGKERELVAAISSIGGRTYYADSVKGRFTISRDNAKNTVYLQMNSLKPEDTAVYYCAARYRRTIPWFAPGNDHKYWGQGTQVTVSS | high polyreactivity
QVQLVKSGGGLVQAGGSLRLSCAASGSTFYNAMGWYRQAPGKERELVAAISIGGSTYYADSVKGRFTNSRDNAKNTVYLQMNSLKPEDTAVYYCNTETGPSPVPVYDTEFDSWGQGTQVTVSS | low polyreactivity
QVQLQESGGGLVQAGGSLRLICAESGSISQTVYMGWYRQAPGKEREFVAAINAGASTYYADSVKGRFTISRDNAKNTVYLQMNSLKPEDTAVYYCAAEYYSAAYNRYWGQGTQVTVSS | low polyreactivity
QVQLVESGGRLVQAGGSLRLSCAASGLIFRRNAMGWYRQAPGKERELVSAISRSSGSTYYADSVKGRFTISRDYAKNSVYFHMNSLKPDDTAVYYCDAGYRAGPGYGMYSWGQGTQVTVSS | high polyreactivity
QVQLVESGGGLVQAGGSLRLSCAASGFIFYIYAMGWYRQAPGKERELVAAISWNGGSTYYADSVKGRFTISRDNAKNTVYLLMNSLKPEDTAVYYCATVARYRYGTGRFDYWGQGTQVTVSS | high polyreactivity
QVQLVESGGGLVQAGGSLRLSCAASGSIFSGYTMGWYRQAPGKERELVAGISYRGGSTYYADSVKGRFTISRDNAKNTVYLQMNSLKPEDTAVYYCAARHSTLRGYWGQGTQVTVSS | high polyreactivity
QVQLVESGGGEVQAGGSLRLSCAASGNIFVKYNMGWYRQAPGKERKLVAAIRWSGGTTNYADSVKGRFTISRDNAKSTVYLQMNSLKPEDTAVYYCNTGYWFFGYNEYDYWGQGTQVTVSS | low polyreactivity
QVQLVESGGGLVQAGGSLRLSCAASGSIFRKNAMGWYRQAPGKERELVAAITGTGRTTYADSVKGRFTISRDNAKNTVYLQMNSLKPEDTAVYYCAAEYYYRYSYTNEGDYWGQGTQVTVSS | low polyreactivity

Sequence | polyreactivity (PSR sort gate)
QVQLVESGGGLVQAGGSVRLSCAASGSIFQYNTMGWYRQAPGKDRELFADINGRGGSTYYADSVKGRFTISRDNAKNTVYLQMNSLKPEDTGVYYCNARVFGGYSKYLFIGRYYWGQGTQVTVSS | low polyreactivity
QVQLVESGGGLVQAGGSLRLSCAASGRTFWFYAMGWYRQAPGKERELVATINYRGGTTYYADSVKGRFTISRDNAKNTVYLQMNSLKPEDTAVYYCAVRPTRTFIYVYWGQGTEVTVSS | high polyreactivity
QVQLVESGGGLVQAGGSLRLSCASSGRTFFPYAKGWYRQAPGKEREFVAAITKTDDSTYYADSVKGRFTISRDNAKNTVYLQMNSLKPEDTAVYYCNAGDTQIRFYYWGQGTQVTVSS | low polyreactivity
QVQLVESGGGLVQAGGSLRLSCAASGRTLRLNAMGWYRQAPGKQREFVDAISRSGDSTYYADSVKGRFTISRDNAKNTVYLQMNSLKPEDTAVYYCNAKYYRYPCAYRYDYWGQGTQVTVSS | high polyreactivity
QVQLVESGGGLVQAGGSLRLSCAASGRIFVPYTMGWYRQAPGKEWELVAAISRSGGSTYYADSVKGRFTISRDNAKNTVYLQMNSLKPEDTAVYYCAARATNVYSKMDSWGQGTQVTVSS | high polyreactivity
QVQLVESGGGLVQAGGSLRLSCAASGFIFGSYTMGWYRQAPGKERELVAAISSSVGRTYYADSVKGRFTISRDNAKNTVYLQMNSLKPEDTAVYYCAARRHGRVDYSQGSRESYYWGQGTQVTVSS | high polyreactivity
QVQLVESGGGLVQAGGSLRLSCAASGITFKTNARGWYRQAPGKERELVAAINKRGGSTYYADSVKGRFTISRDNAKNTVYLQMNSLKPEDTAVYYCARRYGEKFGGQGTQVTVSS | high polyreactivity
QVQLVESGGGLVQAGGSLRLSCAASGGTFGKNAMGWYRQAPGKERELVAAITWSGARTFYADSVKGRFTISRDNAKNTVYLQMNSLKPEDTAVYYCGKGGTRFTRYEYWGQGTQVTVSS | high polyreactivity
QVQLVESGGGLVQAGGSLRLSCAASGRIFRGYGMGWYRQAPGKERELVAAITSRGGSTYYADSVKGRFTISRDNAKYTVYLQMNSLKPEDTAVYYCNRDFNHRPLQSPKRPPKLGYWGQGTQVTVSS | high polyreactivity
QVQLVESGGGLVQAGGSLRLSCAASGITFLYYAMGWYRQAPGTERELVAAITSSGGRTYYADSVKGRFTISRDNAKNTVCLQMNSLKPEDTAVYYCAADSRTYNGGYYWGQGTQVTVSS | high polyreactivity
QVQLVESGGGLVQAGGSLRLSCAASGSPFGDSAMGWYRQAPGKERELVAAISVYGASTYYADSVKGRFTISRDNAKNTVYLHMNSLKPEDTEVYYCAATYDTIGDSWGQGTQVTVSS | low polyreactivity
QVQLVESGGGIVQAGGSLRLSCAASGSIINGNAMGWDRQAPGKERELVAAITRRGGSTYYADSVKGRFTISRDNAKNTVYLQMNSLKPEDTAVYYCAAEDWLYKRPYKERIVQFYYWGQGTQVTVSS | low polyreactivity
QVQLVESGGGLVQAGGSLRLSCAASGITFGDYAMGWYRQAPGKEMEMVAGINWSGDGTYYADSVKGRFTISRDNAKNTVYLQMNSLKPEDTAVYYCNARGIPLYSYRDYRFVVLNFDYWGQGTQVTVSS | low polyreactivity
QVQLVESGGGLVQAGGSLRLSCAASGFIFYRYAMGWYRQAPGKERELVATIRYSGGSTYYADSVKGRFTISRDNAKNTVYLQMNSLKPEDTAVYYCNARRWYLPRRLYDYWGQGTQVTVSS | high polyreactivity
QVQLEESGGGLVQEGGSLRLSSAASGFTFGKYAMGSYRQAPGKEMEFVASISSSGARTYYADSVKGRFTISRDNAKNTVYLQKNSLKPEDTAVYYCAAAYGRYYYTYDYWGQGTQVTVSS | high polyreactivity
QVQLVESGGGLVQAGGSLRLSCAASGSIFIGYAMGWYRQAPGKERELVASIRNGGSTNYADSVKGRFTISRDNAKNTVYLQMNSLKPEDTAVYYCAGRYPVFLVSFGFDYWGQGTQVTVSS | low polyreactivity
QVQLVESGGGLVQAGGSLRLSCAASGRTFLSYTMGWYRQAPGKERELVAAITTSGGSTNYADSVKGRFTISRDNAMNNVYLQMNSLKPEDTAVYYCADEWSVYFNDPRSDYWGQGTQVTVSS | high polyreactivity
QFQLVESGGGLVQAGGSLRLSCAASGRTFRGYAMGWYRQAPGKERELVAAITWRGGSTYYADSVKGRFTISRDNAKNTVYLQMNSLKPEDTAVYYCNTLVWSYLGGYYSRFDYWGQGTQVTVSS | high polyreactivity
HVQLVESGGGLVQAGGSLRLSCAASGFTFARYAMGWYRQAPGKERDLVATITRSGDSTNYADSVKGRFTISRDNAKNTVYLQMNSLKPEDTAVYYCNRRYPIWYRTMNYWGQGTQVTVSS | high polyreactivity
QVQHVESGGGLVQAGGSLRLSCAASGRTFPAYAMGWYRQAPGKERELVAAITYDGGTTYYADSVKGRFTISRYNAKNTVYLQMNSLKPEDTAVYYCADVYDEDQYDYWGQGTQVTVSS | low polyreactivity
QVQLVESGGGLDQAGGSLRLSCADSGSTFGLYAMGWYRQAPGKETELVAVISWRGGSTYYADSVKGRFTISRDNAKITVYFQMNSLKPEDTAVYYCAAYCLYPYVRYDYWGLGTQVTVSS | low polyreactivity
